Test results taken from article PMC7782793, “Hydroxamic acid-modified peptide microarrays for profiling isozyme-selective interactions and inhibition of histone deacetylases” (Nature Communications, 2021).
Starred links: 1 amine or outer side, 2 acyl side, 3 side chain; linkers in the order of their positions; H or OH if unused. Non-standard residues stand in square brackets, D forms with d. Primed or numbered codes have the meaning given here. No end group written: not given here. Asuha″ = L-2-amino-8-(hydroxyamino)-8-oxooctanoic acid, O=C(CCCCC[C@H](N[*:1])C(=O)[*:2])NO; Asuha = 2-aminosuberic acid hydroxamate, O=C(CCCCC[C@H](N[*:1])C(=O)[*:2])NO[*:3]

How the values were obtained:
Assay in all cases: Recombinant HDAC µSPOT microarray binding assay;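 as to Bottom (dose-response curve fit): peptide spots on cellulose slides incubated with rising HDAC enzyme concentrations, imaged together, four-parameter logistic fit, EC50 is enzyme concentration giving half-maximal binding signal, two experiments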;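 as to Bottom (dose-response fit): relative spot intensity from the six enzyme-concentration slides imaged together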;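 as to Bottom (dose-response fit): slides with spotted peptides incubated with six HDAC concentrations in HEPES buffer pH 7.4, spot intensities fitted by four-parameter logistic, EC50 as enzyme concentration giving half-maximal binding signal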;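 as to Top (dose-response curve fit): peptide spots on cellulose slides incubated with rising HDAC enzyme concentrations, imaged together, four-parameter logistic fit, EC50 is enzyme concentration giving half-maximal binding signal, two experiments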;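 as to Top (dose-response fit): relative spot intensity from the six enzyme-concentration slides imaged together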;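 as to Top (dose-response fit): slides with spotted peptides incubated with six HDAC concentrations in HEPES buffer pH 7.4, spot intensities fitted by four-parameter logistic, EC50 as enzyme concentration giving half-maximal binding signal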
HDAC1 = molecular target: T1, HDAC1 (Homo sapiens, UniProt Q13547); conditions: µSPOT microarray; for Bottom (dose-response fit): fitted bottom plateau of the binding curve; for Top (dose-response fit): fitted top plateau of the binding curve;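 as to Bottom (dose-response fit): relative spot intensity from the six enzyme-concentration slides imaged together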;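 as to Top (dose-response fit): relative spot intensity from the six enzyme-concentration slides imaged together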;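 as to all read-outs here: slides with spotted peptides incubated with six HDAC concentrations in HEPES buffer pH 7.4, spot intensities fitted by four-parameter logistic, EC50 as enzyme concentration giving half-maximal binding signal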
T1 construct: HDAC1 (full length, C-terminal His tag, C-terminal FLAG tag, BPS Bioscience, cat. #: 50051); FLAG (C); purchased BPS Bioscience 50051
T1 sequence (Q13547 whole entry): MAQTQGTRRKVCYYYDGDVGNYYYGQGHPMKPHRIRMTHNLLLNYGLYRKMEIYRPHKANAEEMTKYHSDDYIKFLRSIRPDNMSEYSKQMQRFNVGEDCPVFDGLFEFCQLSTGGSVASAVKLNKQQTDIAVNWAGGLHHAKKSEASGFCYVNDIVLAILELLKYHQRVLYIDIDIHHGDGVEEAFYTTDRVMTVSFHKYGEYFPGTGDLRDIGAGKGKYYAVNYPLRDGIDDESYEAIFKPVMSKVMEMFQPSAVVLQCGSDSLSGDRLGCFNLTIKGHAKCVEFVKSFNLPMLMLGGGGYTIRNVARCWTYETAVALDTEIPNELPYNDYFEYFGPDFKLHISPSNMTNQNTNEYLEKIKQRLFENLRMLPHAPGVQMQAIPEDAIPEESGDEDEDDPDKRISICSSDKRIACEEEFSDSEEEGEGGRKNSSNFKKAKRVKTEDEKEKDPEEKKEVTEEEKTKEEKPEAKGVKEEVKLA
Procedure: Experiments were performed twice, data were obtained with Array Analyze software (Active Motif), and data analysis and representation were performed with the GraphPad Prism 7 software. Outliers were curated manually and data were fitted to nonlinear regression [log(agonist) vs. response—variable slope (four parameters)]. […] Non-sigmoidal curves were denoted as not determined (N.D.) The pEC50 values were determined as the concentration of HDAC enzyme required for half-maximal binding signal.

HDAC2 = molecular target: T2, HDAC2 (Homo sapiens, UniProt Q92769); conditions: for Bottom (Value) / Top (Value) / HillSlope (Value): HDAC2 microarray dose-response curve fit, X = Asuha, sheet Fig. 3 HDAC2; for Bottom (Value): bottom plateau; for Top (Value): top plateau; for Bottom / HillSlope / Top: dose-response fit parameter, µSPOT microarray, H4 K12X (X = Asuha) peptides, HDAC2;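 as to all read-outs here: Cellulose-bound peptide spots on slides incubated with six HDAC enzyme concentrations, binding intensity read, four-parameter variable-slope fit, EC50 is enzyme concentration giving half-maximal binding, in HEPES buffer pH 7.4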
T2 construct: HDAC2 (full length, C-terminal His tag, BPS Bioscience, cat. #: 50002); purchased BPS Bioscience 50002
T2 sequence (Q92769 whole entry): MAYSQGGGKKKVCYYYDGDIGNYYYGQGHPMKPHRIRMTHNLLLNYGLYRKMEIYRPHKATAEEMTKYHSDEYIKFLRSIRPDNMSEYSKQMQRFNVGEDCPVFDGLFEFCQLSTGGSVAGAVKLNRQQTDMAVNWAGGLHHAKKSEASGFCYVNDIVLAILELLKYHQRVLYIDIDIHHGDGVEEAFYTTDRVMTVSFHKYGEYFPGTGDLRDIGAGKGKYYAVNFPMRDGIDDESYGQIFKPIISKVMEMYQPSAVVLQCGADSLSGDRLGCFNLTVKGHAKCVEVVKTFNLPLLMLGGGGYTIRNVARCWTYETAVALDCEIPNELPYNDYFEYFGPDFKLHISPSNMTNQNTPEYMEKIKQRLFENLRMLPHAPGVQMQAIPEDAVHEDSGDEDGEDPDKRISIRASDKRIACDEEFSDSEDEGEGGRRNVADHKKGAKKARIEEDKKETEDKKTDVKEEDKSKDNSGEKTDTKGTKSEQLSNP

HDAC3/NCoR2 = molecular target: T3, HDAC3/NCoR2 (Homo sapiens, UniProt O15379); conditions: for Bottom (dose-response curve fit): fitted bottom plateau of binding signal; for Top (dose-response curve fit): fitted top plateau of binding signal; for LogEC50 (M): log of EC50 in M, dose-response fit;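 as to all read-outs here: peptide spots on cellulose slides incubated with rising HDAC enzyme concentrations, imaged together, four-parameter logistic fit, EC50 is enzyme concentration giving half-maximal binding signal, two experiments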
T3 construct: HDAC3/NCoR2 (full length, C-terminal His tag, NCoR2 N-terminal GST tag); purchased BPS Bioscience 50003
T3 sequence (O15379 whole entry): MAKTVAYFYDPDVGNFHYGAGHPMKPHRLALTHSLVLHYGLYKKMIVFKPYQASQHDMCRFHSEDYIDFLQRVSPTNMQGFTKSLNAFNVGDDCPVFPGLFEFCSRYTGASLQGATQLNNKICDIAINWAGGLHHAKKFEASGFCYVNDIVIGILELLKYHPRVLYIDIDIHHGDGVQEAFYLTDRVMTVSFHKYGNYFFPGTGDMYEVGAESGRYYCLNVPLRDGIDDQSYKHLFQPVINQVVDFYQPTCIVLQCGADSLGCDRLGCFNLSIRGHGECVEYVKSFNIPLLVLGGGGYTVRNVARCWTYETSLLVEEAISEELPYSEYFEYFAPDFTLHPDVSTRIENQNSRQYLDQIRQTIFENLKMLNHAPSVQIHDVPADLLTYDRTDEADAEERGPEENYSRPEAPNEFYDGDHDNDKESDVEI
T3 sequence (Q9Y618 389-480 partner limits assumed): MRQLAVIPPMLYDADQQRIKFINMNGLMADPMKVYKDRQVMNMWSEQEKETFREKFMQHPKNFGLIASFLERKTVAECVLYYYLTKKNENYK

HDAC8 = molecular target: T4, HDAC8 (Homo sapiens, UniProt Q9BY41); conditions: for HillSlope (Value): Hill slope of the µSPOT microarray dose-response fit; for HillSlope (Value) / Bottom (Value) / Top (Value): X = Asuha peptides; for Bottom (Value): fitted bottom of the µSPOT microarray dose-response curve; for Top (Value): fitted top of the µSPOT microarray dose-response curve;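 as to all read-outs here: peptide µSPOT slides incubated with varying HDAC enzyme concentrations, imaged signal intensity fitted by four-parameter variable-slope regression, EC50 is enzyme concentration giving half-maximal binding, pH 7.4 HEPES buffer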
T4 construct: HDAC8 (full length, C-terminal His tag, BPS Bioscience, cat. #: 50008); purchased BPS Bioscience 50008
T4 sequence (Q9BY41 1-377): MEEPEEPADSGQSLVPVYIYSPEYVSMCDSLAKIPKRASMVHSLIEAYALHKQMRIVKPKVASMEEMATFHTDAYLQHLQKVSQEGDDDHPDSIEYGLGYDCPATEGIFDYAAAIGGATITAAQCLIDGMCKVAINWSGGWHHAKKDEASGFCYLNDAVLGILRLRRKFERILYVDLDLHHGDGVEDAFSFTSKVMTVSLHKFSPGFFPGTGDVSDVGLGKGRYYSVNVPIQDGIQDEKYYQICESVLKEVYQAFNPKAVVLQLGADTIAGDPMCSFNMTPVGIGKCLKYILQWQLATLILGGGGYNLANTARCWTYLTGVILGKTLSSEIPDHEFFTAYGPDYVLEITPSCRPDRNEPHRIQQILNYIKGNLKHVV

[1] = recombinant HDAC1, Fig. 3, X = Asuha, Hill slope of the binding curve
[2] = recombinant HDAC1, Fig. 3, X = Asuha
[3] = HDAC3 µSPOT microarray, Fig. 3, Hill slope of dose-response fit, X = Asuha
[4] = HDAC3 µSPOT microarray, Fig. 3, X = Asuha
[5] = HDAC8 µSPOT microarray dose-response fit, Bottom Value, X = Asuha, sheet Fig. 3 HDAC8
[6] = HDAC8 µSPOT microarray dose-response fit, HillSlope Value, X = Asuha, sheet Fig. 3 HDAC8
[7] = HDAC8 µSPOT microarray dose-response fit, Top Value, X = Asuha, sheet Fig. 3 HDAC8
[8] = dose-response fit parameter, H4 K12X (X = Asuha) peptides, HDAC1
[9] = dose-response fit parameter, µSPOT microarray, H4 K12X (X = Asuha) peptides, HDAC3
[10] = µSPOT microarray, H4 K12X (X = Asuha) peptides, HDAC3
[11] = dose-response fit parameter, µSPOT microarray, H4 K12X (X = Asuha) peptides, HDAC8

Row | Substance | HillSlope (HDAC1; [1]) | Bottom (dose-response fit) (HDAC1; [2]) | Top (dose-response fit) (HDAC1; [2]) | Bottom (Value) (HDAC2) | Top (Value) (HDAC2) | HillSlope (Value) (HDAC2) | HillSlope (HDAC3/NCoR2; [3]) | Bottom (dose-response curve fit) (HDAC3/NCoR2; [4]) | Top (dose-response curve fit) (HDAC3/NCoR2; [4]) | Bottom (HDAC8; [5]) | HillSlope (HDAC8; [6]) | Top (HDAC8; [7]) | further results
1 | H2A 79-94 (IPRHLQLAIRNDEELN; UniProt P0C0S8 80-95, looked up, fragment) | 1.08 | 0.02 | 19.1 | 0.02 | 40.23 | 1.01 | 1.48 | 0.01 | 0.69 | 0.02 | 7.17 | 0.12 | 
2 | H2B 67-82 (NDIFERIAGEASRLAH; UniProt P06899 68-83, looked up, fragment) | 1.51 | 0.04 | 1.04 | 0.02 | 6.33 | 0.44 | 1.68 | 0.01 | 0.39 | 0.03 | 0.69 | 4.21 | 
3 | H2A 49-64 (VYLAAVLEYLTAEILE; UniProt P0C0S8 50-65, looked up, fragment) | 1.26 | 0.01 | 0.2 | 0.02 | 0.44 | 0.89 | 1.38 | 0 | 0.57 | 0.02 | 0.49 | 6.68 | 
4 | P10 (KGLG[Asuha]GGAK) |  |  |  |  |  |  |  |  |  |  |  |  | Bottom (HDAC1; [8]): 0.02; HillSlope (HDAC1; [8]): 0.6; Top (HDAC1; [8]): 1.69; Bottom (HDAC2): 0.03; HillSlope (HDAC2): 1.44; Top (HDAC2): 0.39; Bottom (HDAC3/NCoR2; [9]): 0.06; HillSlope (HDAC3/NCoR2; [9]): 4.03; Top (HDAC3/NCoR2; [9]): 0.95; LogEC50 (M) (HDAC3/NCoR2; [10]): -8.87 M; Bottom (HDAC8; [11]): 0.03; HillSlope (HDAC8; [11]): 10.49; Top (HDAC8; [11]): 0.13
5 | H2B 64-79 (SFVNDIFERIAGEASR; UniProt P62807 65-80, looked up, fragment) | 1.09 | 0.03 | 1.21 | 0.01 | 12.73 | 0.33 | 1.87 | 0.01 | 0.22 | 0.02 | 0.72 | 1.17 | 
6 | H2B 61-76 (IMNSFVNDIFERIAGE; UniProt P62807 62-77, looked up, fragment) | 1.29 | 0.03 | 1.15 | 0.02 | 0.12 | 1.69 | 1.99 | 0.01 | 0.17 | -0.5 | 0.02 | 0.56 | 
7 | H2A 40-55 (AERVGAGAPVYLAAVL; UniProt P0C0S8 41-56, looked up, fragment) | 0.82 | 0.02 | 5.13 | -0.05 | 0.06 | 0.08 | 1.44 | 0 | 0.3 | 0.01 | 2.67 | 0.08 | 
8 | H2A 19-34 (SRAGLQFPVGRVHRLL; UniProt P04908 20-35, looked up, fragment) | 0.75 | 0.02 | 2.31 | 0.04 | 76.12 | 0.81 | 1.37 | 0.02 | 0.67 | 0.05 | 8.22 | 0.14 | 
9 | P13 (GLG[Asuha″]GGA) |  |  |  |  |  |  |  |  |  |  |  |  | Bottom (HDAC1; [8]): 0.02; HillSlope (HDAC1; [8]): 0.73; Top (HDAC1; [8]): 0.36; Bottom (HDAC2): 0.01; HillSlope (HDAC2): 8.37; Top (HDAC2): 0.04; Bottom (HDAC3/NCoR2; [9]): -0.01; HillSlope (HDAC3/NCoR2; [9]): 0.48; Top (HDAC3/NCoR2; [9]): 24.94; HillSlope (Value) (HDAC8): 17.49; Bottom (Value) (HDAC8): 0.01; Top (Value) (HDAC8): 0.03
10 | H2A 55-70 (LEYLTAEILELAGNAA; UniProt P0C0S8 56-71, looked up, fragment) | 1.43 | 0.02 | 0.27 | 0.01 | 2.34 | 0.64 | 1.26 | 0 | 0.64 | 0.02 | 0.59 | 3.05 | 
11 | P12 (KGLGXGGA; K12 replaced by Asuha (X)) |  |  |  |  |  |  |  |  |  |  |  |  | Bottom (HDAC1; [8]): 0.01; HillSlope (HDAC1; [8]): 0.67; Top (HDAC1; [8]): 0.47; Bottom (HDAC2): 0.02; HillSlope (HDAC2): 7.89; Top (HDAC2): 0.14; Bottom (HDAC3/NCoR2; [9]): 0.04; HillSlope (HDAC3/NCoR2; [9]): 2.48; Top (HDAC3/NCoR2; [9]): 0.98; LogEC50 (M) (HDAC3/NCoR2; [10]): -8.71 M; HillSlope (Value) (HDAC8): 1.3; Bottom (Value) (HDAC8): 0.02; Top (Value) (HDAC8): 0.58
12 | H2A 37-52 (GNYSERVGAGAPVYLA; UniProt P04908 38-53, looked up, fragment) | 0.92 | 0.01 | 6.54 | 0.01 | 3.9 | 0.79 | 0.78 | 0 | 0.79 | 0.01 | 7.44 | 0.07 | 
13 | H2A 46-61 (GAPVYLAAVLEYLTAE; UniProt P0C0S8 47-62, looked up, fragment) | 1.25 | 0.02 | 0.24 | 0.01 | 27.24 | 0.62 | 1.43 | 0.01 | 0.51 | 0.02 | 0.58 | 21.03 | 
14 | H2B 91-106 (SREIQTAVRLLLPGEL; UniProt P62807 92-107, looked up, fragment) | 1.35 | 0.04 | 1.07 | 0.03 | 44.03 | 0.48 | 1.45 | 0.01 | 0.55 | 0.04 | 6.48 | 0.09 | 
15 | H2A 16-31 (TRSSRAGLQFPVGRVH; microarray-immobilized; UniProt P0C0S8 17-32, looked up, fragment) | 1 | 0.03 | 1.15 | 0.04 | 3.35 | 1.17 | 0.97 | 0.01 | 0.73 | 0.05 | 6.81 | 0.12 | LogEC50 (M) (HDAC1; recombinant HDAC1, Fig. 3, X = Asuha, values are log10 of EC50 in M): -7.63 M
